This note sets out measurements from patent publication US20120087858A1 (AbbVie / Abbott, published 2012).

In test [1] the target is T1, Recombinant Human TNF-α/TNFSF1A (human, UniProt P01375 77-233).
T1 construct: Bought reagent; The same protein name (huTNFα) is used in the L929 neutralization assay; also called huTNFα
Put plainly: Biacore SPR. How it is done: (§1) The BIACORE assay (Biacore, Inc, Piscataway, N.J.) determines the affinity of antibodies or DVD-Ig with kinetic measurements of on-rate and off-rate constants. Binding of antibodies or DVD-Ig to a target antigen (for example, a purified recombinant target antigen) is determined by surface plasmon resonance-based measurements with a Biacore® 1000 or 3000 instrument (Biacore® AB, Uppsala, Sweden) using running HBS-EP (10 mM HEPES [pH 7.4], 150 mM NaCl, 3 mM EDTA, and 0.005% surfactant P20) at 25° C. All chemicals are obtained from Biacore® AB (Uppsala, Sweden) or otherwise from a different source as described in the text. For example, approximately 5000 RU of goat anti-mouse IgG, (Fcγ), fragment specific polyclonal antibody (Pierce Biotechnology Inc, Rockford, Ill.) diluted in 10 mM sodium acetate (pH 4.5) is directly immobilized across a CMS research grade biosensor chip using a standard amine coupling kit according to manufacturer's instructions and procedures at 25 μg/ml. Unreacted moieties on the biosensor surface are blocked with ethanolamine. Modified carboxymethyl dextran surface in flowcell 2 and 4 is used as a reaction surface. Unmodified carboxymethyl dextran without goat anti-mouse IgG in flow cell 1 and 3 is used as the reference surface. For kinetic analysis, rate equations derived from the 1:1 Langmuir binding model are fitted simultaneously to association and dissociation phases of all eight injections (using global fit analysis) with the use of Biaevaluation 4.0.1 software. Purified antibodies or DVD-Ig are diluted in HEPES-buffered saline for capture across goat anti-mouse IgG specific reaction surfaces. Antibodies or DVD-Ig to be captured as a ligand (25 μg/ml) are injected over reaction matrices at a flow rate of 5 μl/min. The association and dissociation rate constants, kₒₙ (M⁻¹s⁻) and koff(s⁻¹) are determined under a continuous flow rate of 25 μl/min. Rate constants are derived by making kinetic binding measurements at different antigen concentrations ranging from 10-200 nM. The equilibrium dissociation constant (M) of the reaction between antibodies or DVD-Igs and the target antigen is then calculated from the kinetic rate constants by the following formula: KD=koff/kₒₙ. Binding is recorded as a function of time and kinetic rate constants are calculated.

Another test addresses T2, Recombinant Human SOST (human, UniProt Q9BQB4 24-213).
T2 construct: Biacore reagent from R&D Systems; the Wnt-1/luciferase assay used Human Sclerostin (Abbott PR-1261069); also called Sclerostin; Human Sclerostin
T2 sequence (looked up): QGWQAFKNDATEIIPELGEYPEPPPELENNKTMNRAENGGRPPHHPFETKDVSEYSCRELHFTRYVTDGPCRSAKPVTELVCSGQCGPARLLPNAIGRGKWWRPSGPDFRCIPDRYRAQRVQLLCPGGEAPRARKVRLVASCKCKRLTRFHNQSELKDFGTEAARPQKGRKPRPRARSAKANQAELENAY
The test is described as follows: Biacore SPR. How it is done:
as §1

Test [2] deals with T1, Recombinant Human TNF-α/TNFSF1A. Put plainly: cell-based or functional assay.

T1 sequence (P01375 77-233 limits assumed): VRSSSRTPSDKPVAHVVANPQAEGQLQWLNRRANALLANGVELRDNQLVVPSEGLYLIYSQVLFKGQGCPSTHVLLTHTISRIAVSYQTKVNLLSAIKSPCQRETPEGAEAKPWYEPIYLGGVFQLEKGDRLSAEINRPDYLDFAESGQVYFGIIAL

B1: DVD1495 (bispecific antibody, human IgG1, kappa)
heavy: not shown
light: DIVMTQSHKFMSTTVGDRVSITCKASQAVSSAVAWYQQKPGQSPKLLIYWASTRHTGVPDRFTGSGSVTDFTLTIHNLQAEDLALYYCQQHYSTPFTFGSGTKLEIKRTVAAPDVQMIQSPSSLSASLGDIVTMTCQASQGTSINLNWFQQKPGKAPKLLIYGSSNLEDGVPSRFSGSRYGTDFTLTISSLEDEDLATYFCLQHSYLPYTFGGGTKLEIKRTVAAPSVFIFPPSDEQLKSGTASVVCLLNNFYPREAKVQWKVDNALQSGNSQESVTEQDSKDSTYSLSSTLTLSKADYEKHKVYACEVTHQGLSSPVTKSFNRGEC
notes: DVD-Ig; linker set 3; also called DVD1495H; DVD1495L
A word on the Kd: it is the concentration at which binding is half-saturated. As usually defined, the koff is a measure of how fast the partners let go of each other. The term kon denotes the second-order rate constant of association. As to B1, in test [1], the Kd was found to be 0.021 nM, the koff is 5.4e-05 s⁻¹ and the kon was determined as 2.5e+06 M⁻¹ s⁻¹. Besides, in the test with Recombinant Human SOST, the Kd came out at 22 nM, the koff worked out at 0.00095 s⁻¹ and the kon amounted to 44000 M⁻¹ s⁻¹. Moreover, in test [2], the “TNFα Neutralization Assay EC50 (L929 cells)” value (“TNFα Neutralization Assay EC50” for short) stood at 0.0038 nM.

B2: DVD1517 (bispecific antibody, human IgG1, kappa)
heavy: not shown
light: DIQMTQSPSSLSASVGDRVTITCRASQGIRIDLGWYQQKPGKAPKRLIYAASTLQSGVPSRFSGSGSGTEFIFTISSLQPEDFASYYCLQHKSYPLTFGGGTKVEIKRTVAAPDVQMIQSPSSLSASLGDIVTMTCQASQGTSINLNWFQQKPGKAPKLLIYGSSNLEDGVPSRFSGSRYGTDFTLTISSLEDEDLATYFCLQHSYLPYTFGGGTKLEIKRTVAAPSVFIFPPSDEQLKSGTASVVCLLNNFYPREAKVQWKVDNALQSGNSQESVTEQDSKDSTYSLSSTLTLSKADYEKHKVYACEVTHQGLSSPVTKSFNRGEC
notes: DVD-Ig; linker set 3; also called DVD1517H; DVD1517L
On to B2, for which, in test [1], the Kd came out at 0.018 nM, the koff was 4.7e-05 s⁻¹ and the kon turned out to be 2.6e+06 M⁻¹ s⁻¹. In the test with Recombinant Human SOST, the equilibrium dissociation constant (Kd) stood at 5.5 nM, the koff was 0.0005 s⁻¹ and the on-rate (kon) is 89000 M⁻¹ s⁻¹. In addition, the “TNFα Neutralization Assay EC50” value in test [2] amounted to 0.0012 nM.

B3: DVD1475 (bispecific antibody, human IgG1, kappa)
heavy: not shown
light: DIQMTQSPSSLSASVGDRVTITCRASQGIRIDLGWYQQKPGKAPKRLIYAASTLQSGVPSRFSGSGSGTEFIFTISSLQPEDFASYYCLQHKSYPLTFGGGTKVEIKRTVAAPSVFIFPPDVQMIQSPSSLSASLGDIVTMTCQASQGTSINLNWFQQKPGKAPKLLIYGSSNLEDGVPSRFSGSRYGTDFTLTISSLEDEDLATYFCLQHSYLPYTFGGGTKLEIKRTVAAPSVFIFPPSDEQLKSGTASVVCLLNNFYPREAKVQWKVDNALQSGNSQESVTEQDSKDSTYSLSSTLTLSKADYEKHKVYACEVTHQGLSSPVTKSFNRGEC
notes: DVD-Ig; linker set 2; also called DVD1475H; DVD1475L
For B3, in test [1], the equilibrium dissociation constant (Kd) is 0.013 nM, the koff turned out to be 3.6e-05 s⁻¹ and the kon came to 2.7e+06 M⁻¹ s⁻¹. In addition, in the test with Recombinant Human SOST, the Kd came out at 0.9 nM, the koff came to 0.00073 s⁻¹ and the kon stood at 810000 M⁻¹ s⁻¹. The “TNFα Neutralization Assay EC50” value in test [2] is 0.002 nM.

B4: DVD1483 (bispecific antibody, human IgG1, kappa)
heavy: not shown
light: EIVMTQSPATLSVSPGERATLSCRASQSVSSNLAWYQQKPGQAPRLLIHGASIRATGLPARFSGSGSGTEFTLTISSLQSEDFAVYYCQQYNYWWTFGQGTKVEIKRTVAAPSVFIFPPDVQMIQSPSSLSASLGDIVTMTCQASQGTSINLNWFQQKPGKAPKLLIYGSSNLEDGVPSRFSGSRYGTDFTLTISSLEDEDLATYFCLQHSYLPYTFGGGTKLEIKRTVAAPSVFIFPPSDEQLKSGTASVVCLLNNFYPREAKVQWKVDNALQSGNSQESVTEQDSKDSTYSLSSTLTLSKADYEKHKVYACEVTHQGLSSPVTKSFNRGEC
notes: DVD-Ig; linker set 2; also called DVD1483H; DVD1483L
Regarding B4, in test [1], the Kd came to 0.012 nM, the koff is 3.3e-05 s⁻¹ and the kon worked out at 2.8e+06 M⁻¹ s⁻¹. In the test with Recombinant Human SOST, the dissociation constant Kd worked out at 0.78 nM, the koff worked out at 0.00083 s⁻¹ and the kon came to 1.1e+06 M⁻¹ s⁻¹. In test [2], the “TNFα Neutralization Assay EC50” value came to 0.012 nM.
